From US20160272693A1 (ZEALAND PHARMA A S, published 2016)
Like-named read-outs stand apart in the source and are kept apart here. *1 amine or outer side, *2 acyl side, *3 side chain or, on linkers, in order; H or OH if unused. Bridges are numbered along the chain shown (N, C = ends). The star is where a group is joined. C20 diacid = O=C(O)CCCCCCCCCCCCCCCCCCC(=O)*; γGlu = O=C(O)[C@H](CCC(=O)[*:2])N[*:1]

What was measured:
[1] = target: T1, human amylin receptor 3 (hAMYR3), hCTR2 co-expressed with human receptor activity modifying protein 3 (hRAMP3) (human, UniProt P30988 25-474; O60896 24-148); experiment: cell-based or functional assay
T1 sequence (looked up) 1: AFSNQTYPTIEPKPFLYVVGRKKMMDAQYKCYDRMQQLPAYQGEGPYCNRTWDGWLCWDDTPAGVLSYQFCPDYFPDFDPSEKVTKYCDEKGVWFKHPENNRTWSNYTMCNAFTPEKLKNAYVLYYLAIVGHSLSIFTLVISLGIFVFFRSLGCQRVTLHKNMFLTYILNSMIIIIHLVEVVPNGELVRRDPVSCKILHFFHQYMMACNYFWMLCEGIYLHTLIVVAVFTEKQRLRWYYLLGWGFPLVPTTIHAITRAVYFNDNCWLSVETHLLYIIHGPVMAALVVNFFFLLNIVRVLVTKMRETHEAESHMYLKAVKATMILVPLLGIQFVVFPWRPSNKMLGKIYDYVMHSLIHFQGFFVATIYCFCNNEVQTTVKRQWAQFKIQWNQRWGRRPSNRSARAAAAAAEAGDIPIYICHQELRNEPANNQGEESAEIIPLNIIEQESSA
T1 sequence (looked up) 2: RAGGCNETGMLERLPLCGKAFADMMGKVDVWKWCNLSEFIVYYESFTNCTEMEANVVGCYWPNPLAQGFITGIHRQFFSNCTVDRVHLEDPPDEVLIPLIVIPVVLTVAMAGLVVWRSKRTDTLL

[2] = target: T1, human amylin receptor 3 (hAMYR3), hCTR2 …; experiment: cell-based or functional assay; remark: listed apart in the source

hAMYR3 EC50 (nM); cAMP induction [1]: 0.15 nM
hAMYR3 EC50 (nM); cAMP induction [2]: 0.15 nM
B1: NN96: N-alpha-[(S)-4-carboxy-4-(19-carboxynonadecanoylamino)butyryl]-[Arg1,Glu14,His17,Pro37]-pramlintide-NH2 (peptide)
peptide: {C20 diacid-γGlu}-RCNTATCATQRLAEFLHHSSNNFGPILPPTNVGSNTP-NH2
modifications: disulfide 2-7
SMILES: CC[C@H](C)[C@H](NC(=O)[C@@H]1CCCN1C(=O)CNC(=O)[C@H](Cc1ccccc1)NC(=O)[C@H](CC(N)=O)NC(=O)[C@H](CC(N)=O)NC(=O)[C@H](CO)NC(=O)[C@H](CO)NC(=O)[C@H](Cc1c[nH]cn1)NC(=O)[C@H](Cc1c[nH]cn1)NC(=O)[C@H](CC(C)C)NC(=O)[C@H](Cc1ccccc1)NC(=O)[C@H](CCC(=O)O)NC(=O)[C@H](C)NC(=O)[C@H](CC(C)C)NC(=O)[C@H](CCCNC(=N)N)NC(=O)[C@H](CCC(N)=O)NC(=O)[C@@H](NC(=O)[C@H](C)NC(=O)[C@@H]1CSSC[C@H](NC(=O)[C@H](CCCNC(=N)N)NC(=O)CC[C@H](NC(=O)CCCCCCCCCCCCCCCCCCC(=O)O)C(=O)O)C(=O)N[C@@H](CC(N)=O)C(=O)N[C@@H]([C@@H](C)O)C(=O)N[C@@H](C)C(=O)N[C@@H]([C@@H](C)O)C(=O)N1)[C@@H](C)O)C(=O)N[C@@H](CC(C)C)C(=O)N1CCC[C@H]1C(=O)N1CCC[C@H]1C(=O)N[C@H](C(=O)N[C@@H](CC(N)=O)C(=O)N[C@H](C(=O)NCC(=O)N[C@@H](CO)C(=O)N[C@@H](CC(N)=O)C(=O)N[C@H](C(=O)N1CCC[C@H]1C(N)=O)[C@@H](C)O)C(C)C)[C@@H](C)O
